Literature values in patent US20250341526A1, “NOVEL DYES” (Quantum-Si Incorporated, priority 2024, published 2025).
Entries after “also recorded” stand apart in the source; their conditions may differ. Read-outs that look alike come from different tables or passages of the source.

Test system: amino acid at a terminal position of a polypeptide
Conditions: inferred from literature and/or demonstrated by the inventors, cited from earlier work
[1] = Table 2, amino acid at terminal position (phosphotyrosine also internal)
[2] = Table 1, ClpS proteins, amino acid at terminal position

Row | Molecule | Binding Pref. [1] | Binding Pref. [2]
1 | H. sapiens p62 fragment 1-180: amino acid recognition protein, SEQ ID NO: 121 | K, R, H,; also recorded: W, F, Y | –
2 | Rattus norvegicus p62 protein: amino acid recognition protein, SEQ ID NO: 124 | K, R, H,; also recorded: W, F, Y | –
3 | H. sapiens p62 fragment 126-180: amino acid recognition protein, SEQ ID NO: 122 | K, R, H,; also recorded: W, F, Y | –
4 | PS408: ClpS amino acid recognition protein, SEQ ID NO: 31 (protein) MTDPPSKGREDVDLATRTKPKTQRPPLYKVLLLNDDFTPMEFVVHILERLFGMTHAQAIEIMLTVHRKGVAVVGVFSHEIAETKVAQVMELARRQQHPLQCTMEKE | – | F, Y, W, L
5 | PS396: ClpS amino acid recognition protein, SEQ ID NO: 24 (protein) MSDNDVALKPKIKSKPKLERPKLYKVILVNDDFTPREFVIAVLKMVFRMSEETGYRVMLTAHRLGTSVVVVCARDIAETKAKEAVDFGKEAGFPLMFTTEPEE | – | F, W
6 | PS406: ClpS amino acid recognition protein, SEQ ID NO: 29 (protein) MPDATTTPRTKTLTRTARPPLHKVILVNDDFTPREFVVRLLKAEFRTTGDEAQRIMITAHMKGSCVVAVFTREIAESKATRATETARAEGFPLLFTTEPEE | – | F, Y, W
7 | PS398: ClpS amino acid recognition protein, SEQ ID NO: 26 (protein) MPLKAQNRSIVGRRDEWPPPTTQSSSETKSESKRVSDTGADTKRKTKTVPKVEKPRLYKVILVNDDYTPREFVLVVLKAVFRMSEDQGYKVMITAHQKGSCVVAVYTRDIAETKAKEAVDLAKEIGFPLMFRTEPEE | – | F, W
8 | PS397: ClpS amino acid recognition protein, SEQ ID NO: 25 (protein) MSDNEVAPKRKTRVKPKLERPRLYKVILVNDDYTPRDFVVMVLKAIFRMSEEAGYRVMMTAHKLGTSVVVVCARDIAETKAKEATDLGKEAGFPLMFTTEPEE | – | F, Y, W
9 | PS369: ClpS amino acid recognition protein, SEQ ID NO: 2 (protein) MTSTLRARPARDTDLQHRPYPHYRIIVLDDDVNTFQHVVNCLVTFLPGMTRDQAWAMAQQVDGEGSAVVWTGPQEQAELYHVQLGNHGLTMAPLEPV | – | F, Y, W, L
10 | PS405: ClpS amino acid recognition protein, SEQ ID NO: 28 (protein) MVSIGAATVACAEGRPIFSGYFDWLAAMPETVTVPRTRLRPKTERPKLHKVILVNDDYTPREFVVTVLKGEFHMSEDQAQRVMITAHRRGVCVVAVFTKDVAETKATRASDAGRAKGYPLQFTTEPEE | – | F, Y, W
11 | PS407: ClpS amino acid recognition protein, SEQ ID NO: 30 (protein) MPSNKRQMCLSDIKNSFNESGIVDWHISPRLANEPSEEGDSDLAVQTVPPELKRPPLYAVVLLNDDYTPMEFVIEILQQYFAMNLDQATQVMLTVHYEGKGVAGVYPRDIAETKANQVNNYARSQGHPLLCQIEPKD | – | F, Y, W, L
12 | PS404: ClpS amino acid recognition protein, SEQ ID NO: 27 (protein) MPVSVTAPQTKTKTKPKVERPKLYKVILVNDDFTPREFVVRVLKAEFRMSEDQAAKVMMTAHQRGVCVVAVFTRDVAETKATRATDAGRAKGYPLLFTTEPEE | – | F, Y, W
